According to US20150105327:

What was measured:
[1] = system: recombinant human histone H2A (wild type)
[2] = system: H2A with mutations of six other potential modification sites on the tail domains
[3] = system: tailless histone H2A (N- and C-terminal tails deleted)

recombinant His-VprBP wild type, sequence (chain, as listed by the source): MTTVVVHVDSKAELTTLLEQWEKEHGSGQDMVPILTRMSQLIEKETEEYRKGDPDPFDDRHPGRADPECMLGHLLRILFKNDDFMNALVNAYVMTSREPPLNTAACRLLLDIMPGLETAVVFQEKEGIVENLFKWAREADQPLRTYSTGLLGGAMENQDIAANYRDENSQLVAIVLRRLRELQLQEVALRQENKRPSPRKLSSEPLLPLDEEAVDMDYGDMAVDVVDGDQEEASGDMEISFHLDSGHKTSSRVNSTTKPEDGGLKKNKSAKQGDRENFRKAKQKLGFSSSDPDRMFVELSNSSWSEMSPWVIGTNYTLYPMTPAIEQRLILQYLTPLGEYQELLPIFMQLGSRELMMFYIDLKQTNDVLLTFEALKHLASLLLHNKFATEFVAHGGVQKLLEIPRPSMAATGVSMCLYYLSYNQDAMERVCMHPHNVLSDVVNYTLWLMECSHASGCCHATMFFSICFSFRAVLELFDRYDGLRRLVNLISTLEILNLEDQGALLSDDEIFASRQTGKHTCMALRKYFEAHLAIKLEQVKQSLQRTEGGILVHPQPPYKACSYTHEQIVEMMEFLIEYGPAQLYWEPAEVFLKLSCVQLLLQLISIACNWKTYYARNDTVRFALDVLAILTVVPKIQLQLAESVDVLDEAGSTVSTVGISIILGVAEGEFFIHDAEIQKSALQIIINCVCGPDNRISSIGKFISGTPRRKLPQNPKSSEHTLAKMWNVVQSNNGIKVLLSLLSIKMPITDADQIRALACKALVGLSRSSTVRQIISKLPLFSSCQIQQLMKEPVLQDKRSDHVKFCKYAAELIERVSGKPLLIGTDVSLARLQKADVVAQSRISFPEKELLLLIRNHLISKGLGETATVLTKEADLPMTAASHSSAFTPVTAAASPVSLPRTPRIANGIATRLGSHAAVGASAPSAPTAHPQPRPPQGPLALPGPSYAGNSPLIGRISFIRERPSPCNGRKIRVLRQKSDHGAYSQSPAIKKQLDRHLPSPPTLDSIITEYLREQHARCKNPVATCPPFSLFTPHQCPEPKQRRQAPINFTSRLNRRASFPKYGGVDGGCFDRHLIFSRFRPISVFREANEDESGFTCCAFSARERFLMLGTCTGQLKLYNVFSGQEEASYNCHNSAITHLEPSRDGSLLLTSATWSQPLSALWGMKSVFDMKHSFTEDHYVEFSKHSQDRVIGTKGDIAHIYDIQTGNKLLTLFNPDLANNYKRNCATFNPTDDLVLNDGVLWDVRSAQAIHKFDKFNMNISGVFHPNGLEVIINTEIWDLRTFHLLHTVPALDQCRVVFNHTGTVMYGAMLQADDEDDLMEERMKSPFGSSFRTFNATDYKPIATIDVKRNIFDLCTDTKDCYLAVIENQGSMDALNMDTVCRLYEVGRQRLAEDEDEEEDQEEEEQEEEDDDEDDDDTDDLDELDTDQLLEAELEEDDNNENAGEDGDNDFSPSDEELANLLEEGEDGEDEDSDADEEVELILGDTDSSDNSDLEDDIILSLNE
VprBP kinase-dead mutant K194R, sequence (chain, as listed by the source K194R): as the sequence (chain, as listed by the source) above, with K194R counted along it

For VprBP kinase-dead mutant K194R, the “H2A phosphorylation in nucleosomes, in vitro kinase assay, autoradiography” value (from here on “H2A phosphorylation in nucleosomes”) [1] was “mutation of this lysine residue completely abrogated kinase activity”.
With recombinant His-VprBP wild type the “H2A phosphorylation in nucleosomes” value [2] was “mutations of six other potential modification sites on the tail domains had little effect”, the “H2A phosphorylation in nucleosomes” value (histone H2A T120A mutant) was “VprBP-mediated phosphorylation is completely abolished by mutation of T120” and the “phosphorylation of free individual histones, in vitro kinase assay with [g-32P]-ATP, autoradiography” value (recombinant histone H2B) was “a robust phosphorylation of H2A, but not other core histones”. The “phosphorylation of free individual histones, in vitro kinase assay with [g-32P]-ATP, autoradiography” value (recombinant histone H3) was “a robust phosphorylation of H2A, but not other core histones”, the “phosphorylation of free individual histones, in vitro kinase assay with [g-32P]-ATP, autoradiography” value (recombinant histone H4) was “a robust phosphorylation of H2A, but not other core histones” and the “phosphorylation of H2A in reconstituted nucleosomes, in vitro kinase assay, autoradiography” value [1] was “VprBP generated clear labeling of H2A in the nucleosome after autoradiography”. The “phosphorylation of free individual histones, in vitro kinase assay with [g-32P]-ATP, autoradiography” value [1] was “Autoradiograph of the kinase reaction products showed a robust phosphorylation of H2A, but not other core histones” and the “H2A phosphorylation in nucleosomes” value [3] was “simultaneous deletion of the N- and C-terminal tails of H2A blocks H2A phosphorylation by VprBP”.
